Experimental data as given in patent US8961986B2, “Peptide composition” (Apitope Technology (Bristol) Limited, priority 2000, dated 2015).

What was measured:
HLA-DR2a = target: T1, HLA-DR2a (Homo sapiens, UniProt P01903+Q30154); experiment: Antigen presentation assay, HLA-DR2a transfected L-cells; type: cell-based
T1 construct: expressed in transfected cells; host or cells: L-cells
Description: (§1) MBP peptides 30-44, 130-144 and 139-153 were synthesized using L-amino acids and standard F-moc chemistry on an Abimed AMS 422 multiple peptide synthesiser.
(§2) L-cells transfected with either HLA-DQ6, HLA-DR2a or HLA-DR2b, or Mgar cells (EACC, Porton Down, UK) which express HLA-DQ, DP and DR were used as APCs.
(§3) T-cell clones MS 49:D3 and MS17:A2 were generated from MS patients and clone N5:19 was generated from a normal individual. All three clones were DR2 positive.
(§4) Antigen presenting cells were incubated with the various concentrations of peptide and the appropriate T-cells. Proliferation, and therefore activation, of the T-cells was measured by [^3H]-Thymidine incorporation, and expressed as the stimulation index (SI=corrected counts per minute (ccpm) culture containing peptide/ccpm culture without peptide).

HLA-DR2b = target: T2, HLA-DR2b (Homo sapiens, UniProt P01903+P01911); experiment: Antigen presentation assay, HLA-DR2b transfected L-cells; type: cell-based
T2 construct: expressed in transfected cells; host or cells: L-cells
T2 sequence (P01903 26-254): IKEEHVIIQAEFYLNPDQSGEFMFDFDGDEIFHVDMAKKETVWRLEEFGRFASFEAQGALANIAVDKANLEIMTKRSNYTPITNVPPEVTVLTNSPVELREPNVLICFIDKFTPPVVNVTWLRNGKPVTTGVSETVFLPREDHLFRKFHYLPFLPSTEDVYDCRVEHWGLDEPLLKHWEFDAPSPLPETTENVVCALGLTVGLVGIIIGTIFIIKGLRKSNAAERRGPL
T2 sequence (P01911 30-266): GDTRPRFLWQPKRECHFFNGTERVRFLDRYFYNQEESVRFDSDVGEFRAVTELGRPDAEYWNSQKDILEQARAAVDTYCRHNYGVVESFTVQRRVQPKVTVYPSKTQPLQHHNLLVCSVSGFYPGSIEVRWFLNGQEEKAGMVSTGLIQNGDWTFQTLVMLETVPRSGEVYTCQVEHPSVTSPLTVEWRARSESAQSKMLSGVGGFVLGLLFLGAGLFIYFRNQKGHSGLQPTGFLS
Description: as §1, §2, §3, §4

T1 sequence (P01903 26-254): as the sequence (P01903 26-254) above
T1 sequence (Q30154 30-266): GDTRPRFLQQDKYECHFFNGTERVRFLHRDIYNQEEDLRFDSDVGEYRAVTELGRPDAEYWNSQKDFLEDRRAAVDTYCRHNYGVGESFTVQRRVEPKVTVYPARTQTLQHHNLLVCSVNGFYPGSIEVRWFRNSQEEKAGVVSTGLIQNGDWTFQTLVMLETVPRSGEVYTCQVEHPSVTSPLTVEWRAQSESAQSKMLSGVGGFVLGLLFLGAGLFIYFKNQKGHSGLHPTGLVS

MBP 139-153: MBP peptide 139-153 synthesized using L-amino acids (RPSQRHGSKYLATAS)
proliferation of N5:19 T-cell clone, HLA-DR2a transfected L-cells (HLA-DR2a): stimulated proliferation | proliferation of N5:19 T-cell clone, HLA-DR2b transfected L-cells (HLA-DR2b): not
